Assay results published in US20160046721A1 (BEIJING SHENOGEN PHARMA GROUP, published 2016).
Several values for one entry are separate records, joined by “and”; a condition that tells them apart may be missing. Equal entries are not always repeated.

T1: GV27 peptide (ER-α36 c-terminal 27 aa) (human)
T1 construct: also called 27 aa peptide (F domain); 27-amino acid peptide derived from the F domain of ER-α36
T1 peptide: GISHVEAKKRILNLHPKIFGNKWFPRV

T2: Fc-ER66 (fusion protein of Fc and ER-α66 ligand binding domain) (human, UniProt P03372 302-595, limits assumed)
T2 construct: also called Fc-ER-α66 protein; not shown: Fc
T2 sequence (looked up): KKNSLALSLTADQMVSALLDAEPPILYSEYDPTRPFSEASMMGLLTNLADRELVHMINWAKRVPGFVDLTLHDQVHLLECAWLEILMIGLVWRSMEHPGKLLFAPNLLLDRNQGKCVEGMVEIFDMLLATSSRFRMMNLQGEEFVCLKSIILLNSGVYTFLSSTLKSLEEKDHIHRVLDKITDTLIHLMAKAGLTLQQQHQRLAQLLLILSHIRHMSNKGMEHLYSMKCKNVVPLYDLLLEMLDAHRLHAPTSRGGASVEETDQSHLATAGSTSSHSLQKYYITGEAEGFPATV

T3: Fc-LBD-D27 (Fc-LBD with the C-terminal 27 amino acids deleted) (human, UniProt P03372 339-456)
T3 construct: also called Fc-LBD with 27 amino acids deleted; not shown: Fc
T3 chain: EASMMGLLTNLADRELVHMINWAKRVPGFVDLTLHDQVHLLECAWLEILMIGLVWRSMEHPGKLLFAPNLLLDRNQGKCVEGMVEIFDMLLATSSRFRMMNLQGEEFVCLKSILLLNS

T4: Fc-LBD (fusion protein of Fc and ER-α36 ligand binding domain including the C-terminal 27 amino acids) (human)
T4 construct: Expressed in E. coli BL21 (DE3); No linker is described; also called Fc-ER-α36 LBD; not shown: Fc fused to the N terminal of the LBD
T4 chain: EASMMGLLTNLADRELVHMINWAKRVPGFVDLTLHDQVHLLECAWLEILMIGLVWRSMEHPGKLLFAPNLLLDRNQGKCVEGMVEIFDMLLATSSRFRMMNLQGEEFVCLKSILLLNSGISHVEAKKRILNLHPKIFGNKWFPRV

T5: biotinylated GV27 peptide (human, biotinylated (site not stated))
T5 construct: also called antigen (biotinylated GV27 peptide)
T5 peptide: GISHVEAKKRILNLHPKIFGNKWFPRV


Key:
[1] = target: T1, GV27 peptide (ER-α36 c-terminal 27 aa); assay: Biacore, antibody captured on anti-mouse Fc, GV27 injected
Description: A chip coated with the IgG but without the test antibody was used as a control.
Antibody was captured on anti-mouse/human FC IgG coated surface and peptide was injected over the surface. Empty FC1 was used as a reference channel. The chip surface was regenerated with Gly 1.5.
A Series S CM5 sensor chip (9000RU) (BIACORE) was activated in the FC 2, FC 3 and FC 4 chips by 7-min injection (10 μl/min) of freshly prepared mixture with equal volume of 50 mM NHS and 200 mM EDC. […] Active coupling sites were blocked with 7 min injection of 1M ethanolamine at 10 μl/min. Each antibody was captured over the chip surfaces respectively (FC2, FC3 and FC4, FC1 as a reference cell) and the captured signal was around 500 RU. […] The sensor surfaces were regenerated by injecting regeneration buffer (10 mM glycine buffer with pH 1.5) for 90 s. As a control, GV27 was also injected in different concentrations over the surfaces of FC without captured antibodies.

[2] = target: T2, Fc-ER66 (fusion protein of Fc and …); assay: ELISA, plate coated with Fc-ER66 at 1 ug/ml, HRP anti-mouse IgG Fc
Description: (§1) Five different proteins were used to coat the assay plate at 1 μg/ml.

[3] = target: T3, Fc-LBD-D27 (Fc-LBD with the C-terminal …); assay: ELISA, plate coated with Fc-LBD-D27 at 1 ug/ml, HRP anti-mouse IgG Fc
Description: as §1

[4] = target: T1, GV27 peptide (ER-α36 c-terminal 27 aa); assay: Biacore; table head says human ER-α36, analyte taken as the GV27 peptide of Example 5
[5] = target: T4, Fc-LBD (fusion protein of Fc and ER-α36 …); assay: ELISA, plate coated with Fc-LBD at 1 ug/ml, SNGmB1 in 5-fold dilutions from 10 ug/ml, HRP anti-mouse IgG Fc
Description: as §1

[6] = target: T1, GV27 peptide (ER-α36 c-terminal 27 aa); assay: ELISA, plate coated with the 27-aa peptide at 1 ug/ml, SNGmB1 in 5-fold dilutions from 10 ug/ml, HRP anti-mouse IgG Fc
Description: as §1

[7] = target: T5, biotinylated GV27 peptide; assay: competition ELISA: plate coated with hybridoma SNGmB1 (1 µg/ml), biotinylated GV27 added together with soluble SNGmB1, streptavidin-HRP
Description: (§2) The antigen (biotinylated GV27 peptide) was added along with different amount of the competing mouse antibody, the ELISA plates were then allowed to incubate for equilibrium before wash. Streptavidin-HRP (Sigma, S2438, 1:5000) and TMB substrate (Biopanda, China) were added and OD450 was measured on a plate reader. IgG were tested in parallel as control antibody.

[8] = target: T5, biotinylated GV27 peptide; assay: competition ELISA: plate coated with humanized SNGmB1 ('hzdSNGmB1', 1 µg/ml), biotinylated GV27 added together with soluble SNGmB1, streptavidin-HRP
Description: as §2

[9] = target: T1, GV27 peptide (ER-α36 c-terminal 27 aa); assay: ELISA on the coated 27-aa peptide, antibody in 5-fold dilutions from 10 ug/ml
[10] = target: T1, GV27 peptide (ER-α36 c-terminal 27 aa); assay: as above
[11] = target: T5, biotinylated GV27 peptide; assay: competition ELISA: plate coated with SNGhB1 (1 µg/ml), biotinylated GV27 added together with the soluble antibody, streptavidin-HRP; the sheet labels the soluble antibody SNGhB1, the legend paragraph 64 and paragraph 314 to paragraph 316 name SNGmB1
Description: as §2

| Binder | koff [4] | kon [4] | Kd [4] [nM] | also measured |
| --- | --- | --- | --- | --- |
| SNGmB1 antibody (antibody, mouse IgG2b, kappa, Mouse monoclonal antibody from a hybridoma, mIgG2b; Several lots were tested; also called HBD-B1; hybridoma derived SNGmB1) light: ETTVTQSPASLSMTIGEKVTIRCITSTDIDDDMNWYRKKPGQPPKLLISEGNTLRPGVPSRFSSSGYGTDFVFTIENMLSEDVADYYCLQSDNLPLTFGAGTKLELKRADAAPTVSIFPPSSEQLTSGGASVVCFLNNFYPKDINVKWKIDGSERQNGVLNSWTDQDSKDSTYSMSSTLTLTKDEYERHNSYTCEATHKTSTSPIVKSFNRNEC heavy: QAYLQQSGAELVRPGASVKMSCKASGYTFTSHNMHWIKQTPRQGLEWIGAIHPVNGDTAYNQKFKGKATLTVDKSSSTAYLQLSSLTSEESAVYFCAREGYGSVDYWGQGTTLTVSSAKTTPPSVYPLAPGCGDTTGSSVTLGCLVKGYFPESVTVTWNSGSLSSSVHTFPALLQSGLYTMSSSVTVPSSTWPSQTVTCSVAHPASSTTVDKKLEPSGPISTINPCPPCKECHKCPAPNLEGGPSVFIFPPNIKDVLMISLTPKVTCVVVDVSEDDPDVQISWFVNNVEVHTAQTQTHREDYNSTIRVVSTLPIQHQDWMSGKEFKCKVNNKDLPSPIERTISKIKGLVRAPQVYILPPPAEQLSRKDVSLTCLVVGFNPGDISVEWTSNGHTEENYKDTAPVLDSDGSYFIYSKLNMKTSKWEKTDSFSCNVRHEGLKNYYLKKTISRSPGK | 0.000129 s⁻¹ and 0.000319 s⁻¹ | 2.12e+06 M⁻¹ s⁻¹ and 1.76e+06 M⁻¹ s⁻¹ |  | Kd [1]: ~0.1 nM; binding result [2]: no binding (tested: 10 ug/ml); binding result [3]: no binding (tested: 10 ug/ml); EC50 (read off the curve) [5]: ~0.05 µg/mL; EC50 (read off the curve) [6]: ~0.6 µg/mL; IC50 (read off the curve) [7]: ~0.5 µg/mL; IC50 (read off the curve) [8]: ~0.5 µg/mL |
| SNGHZD (C1L + C5H) (antibody, human IgG1, kappa, V domains shown, Humanized antibody, human IgG1/kappa, expressed in 293E6 cells; also called humanized SNGmB1 variant C1L + C5H) VH: QVQLVQSGAEVKKPGASVKVSCKASGYTFTSHNMHWVRQAPGQGLEWIGAIHPVNGDTAYNQKFKGKATLTVDKSTSTAYLELSSLRSEDTAVYYCAREGYGSVDYWGQGTLVTVSS VL: ETTVTQSPAFMSATPGDKVNISCITSTDIDDDMNWYQQKPGEAPILIISEGNTLRPGIPPRFSSSGYGTDFTLTINNIESEDAAYYFCLQSDNLPLTFGQGTKLEIKR | 0.000122 s⁻¹ | 744000 M⁻¹ s⁻¹ | 0.164 |  |
| SNGHZD (C2L + C5H) (antibody, human IgG1, kappa, V domains shown, Humanized antibody, human IgG1/kappa; also called humanized SNGmB1 variant C2L + C5H) VH: QVQLVQSGAEVKKPGASVKVSCKASGYTFTSHNMHWVRQAPGQGLEWIGAIHPVNGDTAYNQKFKGKATLTVDKSTSTAYLELSSLRSEDTAVYYCAREGYGSVDYWGQGTLVTVSS VL: ETTVTQSPAFMSATPGDKVNISCITSTDIDDDMNWYQQKPGEAAILIISEGNTLRPGIPPRFSSSGYGTDFTLTINNIESEDAAYYFCLQSDNLPLTFGQGTKLEIKR | 0.000488 s⁻¹ | 3.46e+06 M⁻¹ s⁻¹ | 0.13 | EC50 (read off the curve) [9]: ~0.04 µg/mL |
| SNGHZD (C3L + C6H) (antibody, human IgG1, kappa, V domains shown, Humanized antibody, human IgG1/kappa; also called humanized SNGmB1 variant C3L + C6H) VH: QVQLVQSGAEVKKPGASVKVSCKASGYTFTSHNMHWVRQAPGQGLEWIGAIHPVNGDTAYNQKFKGKATLTVDKSTSTAYMELSSLRSEDTAVYYCAREGYGSVDYWGQGTLVTVSS VL: ETTVTQSPAFMSATPGDKVNISCITSTDIDDDMNWYQQKPGEAPILIISEGNTLRPGIPPRFSGSGYGTDFTLTINNIESEDAAYYFCLQSDNLPLTFGQGTKLEIKR | 0.00036 s⁻¹ | 1.33e+06 M⁻¹ s⁻¹ | 0.271 |  |
| SNGHZD (C3L + C5H) (antibody, human IgG1, kappa, V domains shown, Humanized antibody, human IgG1/kappa; also called humanized SNGmB1 variant C3L + C5H) VH: QVQLVQSGAEVKKPGASVKVSCKASGYTFTSHNMHWVRQAPGQGLEWIGAIHPVNGDTAYNQKFKGKATLTVDKSTSTAYLELSSLRSEDTAVYYCAREGYGSVDYWGQGTLVTVSS VL: ETTVTQSPAFMSATPGDKVNISCITSTDIDDDMNWYQQKPGEAPILIISEGNTLRPGIPPRFSGSGYGTDFTLTINNIESEDAAYYFCLQSDNLPLTFGQGTKLEIKR | 0.000356 s⁻¹ | 3.54e+06 M⁻¹ s⁻¹ | 0.1 |  |

Further binders by falling Kd [4], results first:

| koff [4] | kon [4] | Kd [4] [nM] | Binder | also measured |
| --- | --- | --- | --- | --- |
| 0.000398 s⁻¹ | 1.28e+06 M⁻¹ s⁻¹ | 0.31 | SNGHZD (C2L + C6H) (antibody, human IgG1, kappa, V domains shown, Humanized antibody, human IgG1/kappa; also called humanized SNGmB1 variant C2L + C6H) VH: QVQLVQSGAEVKKPGASVKVSCKASGYTFTSHNMHWVRQAPGQGLEWIGAIHPVNGDTAYNQKFKGKATLTVDKSTSTAYMELSSLRSEDTAVYYCAREGYGSVDYWGQGTLVTVSS VL: ETTVTQSPAFMSATPGDKVNISCITSTDIDDDMNWYQQKPGEAAILIISEGNTLRPGIPPRFSSSGYGTDFTLTINNIESEDAAYYFCLQSDNLPLTFGQGTKLEIKR |  |
| 0.000283 s⁻¹ | 1.74e+06 M⁻¹ s⁻¹ | 0.163 | SNGhB1 chimeric antibody (antibody, human IgG1, kappa, Chimeric antibody: mouse V regions with human kappa and IgG1 constant regions; also called chimeric SNGmB1; SNGhB1(20111118)) light: ETTVTQSPASLSMTIGEKVTIRCITSTDIDDDMNWYRKKPGQPPKLLISEGNTLRPGVPSRFSSSGYGTDFVFTIENMLSEDVADYYCLQSDNLPLTFGAGTKLELKRTVAAPSVFIFPPSDEQLKSGTASVVCLLNNFYPREAKVQWKVDNALQSGNSQESVTEQDSKDSTYSLSSTLTLSKADYEKHKVYACEVTHQGLSSPVTKSFNRGEC heavy: not shown | IC50 (read off the curve) [11]: ~0.5 µg/mL |
| 0.000302 s⁻¹ | 2.89e+06 M⁻¹ s⁻¹ | 0.105 | SNGHZD (C1L + C6H) (antibody, human IgG1, kappa, V domains shown, Humanized antibody, human IgG1/kappa; also called humanized SNGmB1 variant C1L + C6H) VH: QVQLVQSGAEVKKPGASVKVSCKASGYTFTSHNMHWVRQAPGQGLEWIGAIHPVNGDTAYNQKFKGKATLTVDKSTSTAYMELSSLRSEDTAVYYCAREGYGSVDYWGQGTLVTVSS VL: ETTVTQSPAFMSATPGDKVNISCITSTDIDDDMNWYQQKPGEAPILIISEGNTLRPGIPPRFSSSGYGTDFTLTINNIESEDAAYYFCLQSDNLPLTFGQGTKLEIKR | EC50 (read off the curve) [10]: ~0.05 µg/mL |
